# From patent US20260258155A1 (TRIVENI BIO, published 2026)
# Where a chain is given by its changes, count along the chain named.
# B1: KLK7-L1-Ab8 (antibody, V domains shown)
# VH: QVQLVQSGAEVKKPGASVKVSCKASGYTFTSEGIHWVRQAPGQGLEWMGSISASSGDTNYAQKLQGRVTMTTDTSTSTAYMELRSLRSDDTAVYYCARSAGYGARHWYFDLWGQGTMVTVSS
# VL: DIQMTQSPSSLSASVGDRVTITCRASQSISSYLNWYQQKPGKAPKLLIYGASSLQSGVPSRFSGSGSGTDFTLTISSLQPEDFATYYCDQWYSTPPITFGGGTKVEIK
# B2: KLK7-L4-Ab1 (antibody, V domains shown)
# VH: QLQLQESGPGLVKPSETLSLTCTVSGGSISSSSYYWGWIRQPPGKGLEWIGSISYSGSTYYNPSLKSRVTISVDTSKNQFSLKLSSVTAADTAVYYCARGAPTYFGAASHYYYYMDVWGKGTTVTVSS
# VL: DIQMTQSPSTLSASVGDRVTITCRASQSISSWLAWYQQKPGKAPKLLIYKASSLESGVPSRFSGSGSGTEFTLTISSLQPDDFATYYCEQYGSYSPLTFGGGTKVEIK
# B3: KLK7-L3-Ab1 (antibody, V domains shown)
# VH: QVQLVQSGAEVKKPGSSVKVSCKASGGTFSNYAISWVRQAPGQGLEWMGGIIPIFGTANYAQKFQGRVTITADESTSTAYMELSSLRSEDTAVYYCARGAPNYYGSSSSRGIAFDIWGQGTMVTVSS
# VL: DIQMTQSPSSVSASVGDRVTITCRASQGISSWLAWYQQKPGKAPKLLIYAASSLQSGVPSRFSGSGSGTDFTLTISSLQPEDFATYYCVQANAFPYTFGGGTKVEIK
# B4: KLK5-L2-Ab1 (antibody, V domains shown)
# VH: QLQLQESGPGLVKPSETLSLTCTVSGGSISSSSYYWGWIRQPPGKGLEWIGSISYSGSTYYNPSLKSRVTISVDTSKNQFSLKLSSVTAADTAVYYCARGEYDRSYYYYGMDVWGQGTTVTVSS
# VL: not shown
# B5: KLK5-L2-Ab2 (antibody, V domains shown)
# VH: B4 VH with S30P, G37A, S52N, S54Y, Y106A, Y107L
# VL: not shown
# B6: KLK5-L1-Ab1 (antibody, V domains shown)
# VH: EVQLVESGGGLVQPGGSLRLSCAASGFTFSSYSMNWVRQAPGKGLEWVSYISSSSSTIYYADSVKGRFTISRDNAKNSLYLQMNSLRAEDTAVYYCARDLTSMQSRDYYYYGMDVWGQGTTVTVSS
# VL: B3 VL with V89Q, A91V, N92P, A93I
# B7: KLK5-L3-Ab1 (antibody, V domains shown)
# VH: QVQLVQSGAEVKKPGASVKVSCKASGYTFTGYYMHWVRQAPGQGLEWMGGIIPISGTANYAQKFQGRVTITADESTSTAYMELSSLRSEDTAVYYCARGSASGYYDRSYYYYGMDVWGQGTTVTVSS
# VL: B3 VL with V89Q, A91V, N92S, A93S
# B8: KLK5-L3-Ab5 (antibody, V domains shown)
# VH: B7 VH with A16S, Y27G, T30S, Y33S, M34I, H35S, G50L, I52F, G99Q, Y111R
# VL: B3 VL with V89Q, A91V, N92S, A93S
# Biological target: T1, human KLK7 (hKLK7), active form (human, UniProt P49862 30-253)
# T1 construct: mature; also called active human KLK7
# T1 sequence (P49862 30-253): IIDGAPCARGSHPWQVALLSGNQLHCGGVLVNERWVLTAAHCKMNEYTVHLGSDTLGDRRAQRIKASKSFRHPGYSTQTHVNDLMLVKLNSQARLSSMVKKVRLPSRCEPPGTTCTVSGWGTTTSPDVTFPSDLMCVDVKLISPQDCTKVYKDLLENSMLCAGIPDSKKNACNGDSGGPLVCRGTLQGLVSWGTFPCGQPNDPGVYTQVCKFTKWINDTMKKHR
# Assay: Biacore SPR, antibody captured on Protein A chip, single-cycle kinetics, 25 C
# Method: (§1) All screening assays were performed at 25 C. The running buffer used was 20 mM HEPES, 300 mM NaCl, 0.01% Tween-20, pH 7.5. Antibodies (1 ug/mL) were captured on Fc2-4 of a Series S ProteinA Sensor Chip (Cytiva) flowing at 10 ul/mL for 30 s. Kinetics measurements were made in single-cycle kinetics mode with a series of 4-5 concentrations with top concentration of 25-100 nM and serial dilution 4-fold. Contact time was typically 300 s and dissociation time ranged from 1800-3600 s. Flow rate of 30 ul/mL was typically used. The sensor chip was regenerated with 10 mM glycine, pH 1.5 with a contact time of 30 s flowing at 50 ul/mL.
row,Binder,Kd [nM]
1,B1,0.01
2,B2,0.219
3,B3,0.0205

# Biological target: T2, mouse KLK7 (mKLK7) (mouse, UniProt Q91VE3 26-249)
# T2 construct: Enzymatically active in the protease assay
# T2 sequence (Q91VE3 26-249 limits assumed): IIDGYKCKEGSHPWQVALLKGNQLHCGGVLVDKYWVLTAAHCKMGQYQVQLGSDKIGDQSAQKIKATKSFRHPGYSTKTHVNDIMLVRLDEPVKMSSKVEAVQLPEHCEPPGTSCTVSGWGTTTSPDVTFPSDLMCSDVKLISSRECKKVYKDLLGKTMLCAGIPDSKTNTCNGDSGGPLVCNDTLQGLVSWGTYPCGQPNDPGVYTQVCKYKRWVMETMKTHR
# Assay: as above
# Method: as §1
row,Binder,Kd [nM]
1,B1,0.0569
2,B2,6
3,B3,9.03

# Biological target: mouse KLK5 (mKLK5) (mouse)
# Assay: cell-based or functional assay
Binder,mKLK5 IC50 (protease inhibition) [nM],mKLK5 IC90 (protease inhibition) [nM]
B4,45.9,93.2
B5,2.21,13.1
B6,29.4,103
B7,81.3,130
B8,4.44,28.4

# Biological target: T3, human KLK5 (hKLK5), active form (human, UniProt Q9Y337 67-293)
# Assay: cell-based or functional assay
Binder,hKLK5 IC50 (protease inhibition) [nM],hKLK5 IC90 (protease inhibition) [nM]
B4,11,92.9
B5,1.71,8.46
B6,3.45,83.1
B7,12.7,112
B8,2.58,10.6

# Biological target: T1, human KLK7 (hKLK7), active form
# Assay: cell-based or functional assay
Binder,hKLK7 IC50 (protease inhibition) [nM],hKLK7 IC90 (protease inhibition) [nM]
B1,0.767,3.95
B2,0.52,14.9
B3,0.37,10.5

# Biological target: T2, mouse KLK7 (mKLK7)
# Assay: cell-based or functional assay
Binder,mKLK7 IC50 (protease inhibition) [nM],mKLK7 IC90 (protease inhibition) [nM]
B1,1.1,5.3
B2,16.3,118
B3,10.9,212

# Biological target: T4, mouse KLK5 (mKLK5) (mouse)
# T4 construct: Enzymatically active in the protease assay
# Assay: Biacore SPR, antibody captured on Protein A chip, single-cycle kinetics, 25 C
# Method: as §1
row,Binder,Kd [nM]
1,B4,20.5
2,B5,0.44
3,B6,4.44
4,B7,16.6
5,B8,3.4

# Biological target: T3, human KLK5 (hKLK5), active form
# Assay: as above
# Method: as §1
row,Binder,Kd [nM]
1,B4,2.53
2,B5,0.003
3,B6,0.783
4,B7,2.62
